Laboratory results from PMC5959072, “Biochemical characterization of RecBCD enzyme from an Antarctic Pseudomonas species and identification of its cognate Chi (χ) sequence” (PLoS ONE, 2018).

Test system: Nc1ncnc2c1ncn2[C@@H]1O[C@H](COP(=O)(O)OP(=O)(O)OP(=O)(O)O)[C@@H](O)[C@H]1O
Assay: purified protein
Details: 22 °C, pH 7.5, 1 mM Mg acetate, NdeI-linearized pBR322 dsDNA, ATP sites in RecB and RecD
Source text: TLC ATPase assay with [γ-32P]ATP tracer on RecBCD^Ps (RecBCD enzyme of Pseudomonas syringae Lz4W)

With “RecBCD^Ps (RecBCD enzyme of Pseudomonas syringae Lz4W) (Pseudomonas syringae)” the Km was 57.8 ± 10.1 µM and the kcat was 245 s⁻¹.
